Assay results: patent US20240041976A1, “COMPOSITION AND USE” (priority 2020, published 2024)

Tests used:
S. haemolyticus 4072 = assay: microbe, parasite or virus in culture; settings: 4072; for MIC: individual component
S. haemolyticus 4068 = assay: microbe, parasite or virus in culture; settings: 4068; for MIC: individual component
S. haemolyticus 4069 = assay: microbe, parasite or virus in culture; settings: 4069; for MIC: individual component
S.a. 3255 biofilm = assay: Biofilm-oriented antimicrobial test (BOAT), MIC50 in biofilms; type: cell-based, Staphylococcus aureus
Experimental: (§1) Synergistic interactions between antimicrobials were determined using the fractional inhibition concentration (FIC). The FIC values were calculated as follows: the sum of the FIC =FICa+FICb+FICc, where the FICa means MIC of A in combination/MIC of A alone, FICb means MIC of B in combination/MIC of B, and FICc means MIC of C in combination/MIC of C alone. Effects were considered as synergistic if FIC was ≤0.5 for two components mixture and ≤0.75 for three components mixture.
(§2) Staphylococcus aureus strains were inoculated in 5 ml of TSB and incubated O/N at 37° C. Ten μl of the O/N cultures were then inoculated in 90 μl of TSB supplemented with 1% glucose and 1% NaCl (TSB-GN) in the appropriate wells of a 96-well microtiter plate (Sarstedt) to a final volume of 100 μl. The plates were then incubated at 37° C. for 24 h. After the incubation, the presence of the biofilm at the bottom of the wells was assessed visually.
(§3) The BOAT assay was performed as described previously (Gronseth et al., 2017, Int. J. Pediatr. Otorhinolaryngol., Vol. 103, p 58-64) with some modifications. The serial dilutions of the antimicrobials were prepared in challenge plates as follows: 175 μl of TSB were transferred in each row of a 96-well microtiter plate, except for the first row, according to the number of microbial strains to treat. In the first row of the plate, the antimicrobials were diluted to their respective working concentrations in a final volume of 350 μl of TSB. From the first row, 175 μl of the antimicrobial dilutions were then transferred to the second row of the plate and further serially diluted to the bottom of the plate. The same procedure was followed to prepare the controls, except that instead of the antimicrobials an equivalent volume of the respective vehicles were used. The biofilms were allowed to form for 24 h and then washed twice with 100 μl of sterile saline buffer and a total of 150 μl of the antimicrobial and control dilutions were transferred from the challenge plate to the corresponding wells of the biofilm plate. The challenged biofilms were then incubated for an additional 24 h at 37° C. After the challenge period, the antimicrobial dilutions were removed and the biofilms were carefully washed three times with 150 μl of sterile saline buffer. A total of 100 μl of TSB supplemented with 0.025% of triphenyl-tetrazolium chloride (TTC, Sigma) were then added to each well of the plate and further incubated at 37° C. for 5h. The results were then assessed by monitoring the development (or not) of red formazan (red colour), denoting the retention of metabolic activity by bacterial cells (Moussa et al., 2013, J. Mycol., Vol. 2013; Perez et al., 2010, Lett. Appl. Microbiol., Vol. 51, p 331-337). The medium was then removed and 200 μl of an ethanol:acetone (70:30) mixture was added to the wells and incubated O/N in order to extract the red formazan. The amount of extracted dye, reflecting the degree of bacterial cell metabolic activity, was then quantified by spectrophotometric readings at 492 nm.

[1] = test system: S. aureus USA 300 biofilm; assay: as above; type: cell-based, Staphylococcus aureus
Experimental: as §1, §2, §3

[2] = test system: S. aureus ATTC 33591 biofilm; assay: as above; type: cell-based, Staphylococcus aureus
Experimental: as §1, §2, §3

[3] = garvicin KS + micrococcin P1 + penicillin G

B1: Garvicin KS: three-peptide leaderless bacteriocin (GarA, GarB, GarC; SEQ ID NO:6-8), peptides synthesized (peptide, listed as Lactococcus garvieae)
chain 1: MGAIIKAGAKIVGKGVLGGGASWLGWNVGEKIWK
chain 2: MGAIIKAGAKIIGKGLLGGAAGGATYGGLKKIFG
chain 3: MGAIIKAGAKIVGKGALTGGGVWLAEKLFGGK
MIC of the component in combination (S. haemolyticus 4072; 5 h, GarKS + MP1): 0.73 µg/mL | MIC of the component in combination (S. haemolyticus 4072; 5 h, K1-EJ + GarKS): 1.5 µg/mL | MIC of the component in combination (S. haemolyticus 4072; 5 h, K1-EJ + GarKS + MP1): 0.68 µg/mL | MIC (S. haemolyticus 4072; 5 h): 23.6 µg/mL | MIC of the component in combination (S. haemolyticus 4072; 24 h, GarKS + MP1): 1.6 µg/mL | MIC of the component in combination (S. haemolyticus 4072; 24 h, K1-EJ + GarKS): 12 µg/mL | MIC of the component in combination (S. haemolyticus 4072; 24 h, K1-EJ + GarKS + MP1): 1.6 µg/mL | MIC (S. haemolyticus 4072; 24 h): 49 µg/mL | MIC of the component in combination (S. haemolyticus 4072; 48 h, GarKS + MP1): 3.1 µg/mL | MIC of the component in combination (S. haemolyticus 4072; 48 h, K1-EJ + GarKS): 13 µg/mL | MIC of the component in combination (S. haemolyticus 4072; 48 h, K1-EJ + GarKS + MP1): 5.8 µg/mL | MIC (S. haemolyticus 4072; 48 h): 52 µg/mL | MIC of the component in combination (S. haemolyticus 4068; 5 h, GarKS + MP1): 0.2 µg/mL | MIC of the component in combination (S. haemolyticus 4068; 5 h, K1-EJ + GarKS): 0.83 µg/mL | MIC of the component in combination (S. haemolyticus 4068; 5 h, K1-EJ + GarKS + MP1): 0.32 µg/mL | MIC (S. haemolyticus 4068; 5 h): 6.5 µg/mL | MIC of the component in combination (S. haemolyticus 4068; 24 h, GarKS + MP1): 0.32 µg/mL | MIC of the component in combination (S. haemolyticus 4068; 24 h, K1-EJ + GarKS): 3.1 µg/mL | MIC of the component in combination (S. haemolyticus 4068; 24 h, K1-EJ + GarKS + MP1): 0.78 µg/mL | MIC (S. haemolyticus 4068; 24 h): 24 µg/mL | MIC of the component in combination (S. haemolyticus 4068; 48 h, GarKS + MP1): 0.68 µg/mL | MIC of the component in combination (S. haemolyticus 4068; 48 h, K1-EJ + GarKS): 6 µg/mL | MIC of the component in combination (S. haemolyticus 4068; 48 h, K1-EJ + GarKS + MP1): 2.8 µg/mL | MIC (S. haemolyticus 4068; 48 h): 25 µg/mL | MIC of the component in combination (S. haemolyticus 4069; 5 h, GarKS + MP1): 1.6 µg/mL | MIC of the component in combination (S. haemolyticus 4069; 5 h, K1-EJ + GarKS): 1.4 µg/mL | MIC of the component in combination (S. haemolyticus 4069; 5 h, K1-EJ + GarKS + MP1): 0.68 µg/mL | MIC (S. haemolyticus 4069; 5 h): 3.3 µg/mL | MIC of the component in combination (S. haemolyticus 4069; 24 h, GarKS + MP1): 25 µg/mL | MIC of the component in combination (S. haemolyticus 4069; 24 h, K1-EJ + GarKS): 6 µg/mL | MIC of the component in combination (S. haemolyticus 4069; 24 h, K1-EJ + GarKS + MP1): 3.3 µg/mL | MIC (S. haemolyticus 4069; 24 h): 13 µg/mL | MIC of the component in combination (S. haemolyticus 4069; 48 h, GarKS + MP1): 50 µg/mL | MIC of the component in combination (S. haemolyticus 4069; 48 h, K1-EJ + GarKS): 6.5 µg/mL | MIC of the component in combination (S. haemolyticus 4069; 48 h, K1-EJ + GarKS + MP1): 5.8 µg/mL | MIC (S. haemolyticus 4069; 48 h): 26 µg/mL | MIC50 of the component in combination (S.a. 3255 biofilm; garvicin KS + micrococcin P1): 3.1 × 10^−1. mg/ml | MIC50 of the component in combination (S.a. 3255 biofilm; [3]): 0.31 mg/mL | MIC50 of the component in combination (S.a. 3255 biofilm; garvicin KS + penicillin G): 0.31 mg/mL | MIC50 (S.a. 3255 biofilm; individual component): 1250 µg/mL | MIC50 of the component in combination ([1]; garvicin KS + micrococcin P1): 5000 µg/mL | MIC50 of the component in combination [1, 3]: 5000 µg/mL | MIC50 of the component in combination ([1]; garvicin KS + penicillin G): >5000 µg/mL | MIC50 ([1]; individual component): 2500 µg/mL | MIC increase compared to the planktonic state ([2]; ATCC 33591 biofilm): over 100 fold | MIC50 of the component in combination ([2]; ATTC 33591, biofilm, garvicin KS + micrococcin P1): >5000 µg/mL | MIC50 of the component in combination ([2]; ATTC 33591, biofilm, garvicin KS + micrococcin P1 + penicillin G): 5000 µg/mL | MIC50 of the component in combination ([2]; ATTC 33591, biofilm, garvicin KS + penicillin G): >5000 µg/mL | MIC50 ([2]; ATTC 33591, biofilm, individual component): >5000 µg/mL
